Data published in publication PMC4122344, “Heterodimerization of p45–p75 Modulates p75 Signaling: Structural Basis and Mechanism of Action” (PLoS Biology, 2014).
Numbering of substitutions follows the chain as printed. Names and notes keep the numbering of the source. One block for each binder: values may come before it.

Key:
[1] = biological target: T1, p75ICD (residues 290–418) (human, UniProt P08138 290-418); experiment: SEC; S200-Superdex gel filtration, 4 °C, PBS pH 8.0, 0.7 ml/min; p75ICD purified with or without DTT (or with iodoacetamide in the lysis buffer); details: both partners purified
T1 chain: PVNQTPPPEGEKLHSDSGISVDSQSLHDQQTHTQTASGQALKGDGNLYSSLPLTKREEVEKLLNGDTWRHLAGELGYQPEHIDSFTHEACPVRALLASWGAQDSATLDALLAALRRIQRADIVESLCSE

[2] = biological target: T1, p75ICD (residues 290–418); experiment: NMR titration; TROSY spectra of 15N-labelled p75ICD at different concentrations (10, 100, 500 µM) with DTT; 25 °C, PBS pH 8.0, 100 mM NaCl; monomer to dimer; details: both partners purified
Flag-tagged human NgR = biological target: T2, Flag-tagged human NgR (human, UniProt Q9BZR6 27-447); experiment: co-IP; HEK293 co-transfected with wild-type or mutant p75 and Flag-tagged NgR; p75 co-immunoprecipitated with NgR; blots quantified, wild type = 100%; details: partners not purified
T2 construct: Nogo-66 receptor (NgR), human; Printed both as Flag-hNgR and as NgR-Flag; also called Flag-hNgR; NgR-Flag; source: HEK293, transfected, in lysate
T2 sequence (looked up): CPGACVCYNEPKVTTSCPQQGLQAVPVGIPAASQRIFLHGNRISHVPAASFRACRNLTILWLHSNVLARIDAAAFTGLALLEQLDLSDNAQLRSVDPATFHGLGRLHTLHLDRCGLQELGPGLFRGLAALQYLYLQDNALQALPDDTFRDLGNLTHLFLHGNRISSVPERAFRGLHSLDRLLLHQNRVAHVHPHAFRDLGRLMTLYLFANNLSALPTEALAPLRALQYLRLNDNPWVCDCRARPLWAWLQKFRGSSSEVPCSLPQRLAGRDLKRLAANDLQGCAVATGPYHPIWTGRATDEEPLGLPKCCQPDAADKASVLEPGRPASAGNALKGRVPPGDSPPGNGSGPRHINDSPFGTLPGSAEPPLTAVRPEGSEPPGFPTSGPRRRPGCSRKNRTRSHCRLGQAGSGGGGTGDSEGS

B2: p75 D372R (full-length) (receptor, UniProt P07174 30-425, looked up)
chain: KETCSTGLYTHSGECCKACNLGEGVAQPCGANQTVCEPCLDNVTFSDVVSATEPCKPCTECLGLQSMSAPCVEADDAVCRCAYGYYQDEETGHCEACSVCEVGSGLVFSCQDKQNTVCEECPEGTYSDEANHVDPCLPCTVCEDTERQLRECTPWADAECEEIPGRWIPRSTPPEGSDSTAPSTQEPEVPPEQDLVPSTVADMVTTVMGSSQPVVTRGTTDNLIPVYCSILAAVVVGLVAYIAFKRWNSCKQNKQGANSRPVNQTPPPEGEKLHSDSGISVDSQSLHDQQTHTQTASGQALKGDGNLYSSLPLTKREEVEKLLNGDTWRHLAGELGYQPEHIRSFTHEACPVRALLASWGAQDSATLDALLAALRRIQRADIVESLCSESTATSPV
notes: p75 neurotrophin receptor; source: HEK293, transfected, in lysate
percent co-immunoprecipitated with NgR (WT, 100%) (Flag-tagged human NgR): 61.8%

B4: p75 H376E (full-length) (receptor, UniProt P07174 30-425, looked up)
chain: B2 chain with R343D, H347E
notes: as for B2
percent co-immunoprecipitated with NgR (WT, 100%) (Flag-tagged human NgR): 125%

B5: p75 E377R (full-length) (receptor, UniProt P07174 30-425, looked up)
chain: B2 chain with R343D, E348R
notes: as for B2
percent co-immunoprecipitated with NgR (WT, 100%) (Flag-tagged human NgR): 27.4%

Further lines, results first:

stoichiometry N [1]: 2 | Kd [2]: ~100 µM
B1: p75ICD (residues 290–418) (domain or fragment)
chain: T1 chain
modifications: Methods print 'human p75ICD', but all residue numbers (L360, E363, Q367, D372, H376, E377, C379, W388, R404) and the mapped structure 1NGR fit the rat precursor; human P08138 is offset by +2 in this …

percent co-immunoprecipitated with NgR (WT, 100%) (Flag-tagged human NgR): 17.7%
B3: p75-C257A (full-length) (receptor, UniProt P07174 30-425, looked up)
chain: B2 chain with C228A, R343D
notes: p75 neurotrophin receptor; also called p75 TM domain mutant; source: HEK293, transfected, in lysate
